Reference: publication doi:10.1101/2021.11.08.467742 (bioRxiv, 2021)
Positions count from the first letter of the chain named. In names and notes the source's numbering stands.

B1: Escherichia coli FtsA, full length (natural protein, E. coli, UniProt P0ABH0 1-420, looked up)
chain: MIKATDRKLVVGLEIGTAKVAALVGEVLPDGMVNIIGVGSCPSRGMDKGGVNDLESVVKCVQRAIDQAELMADCQISSVYLALSGKHISCQNEIGMVPISEEEVTQEDVENVVHTAKSVRVRDEHRVLHVIPQEYAIDYQEGIKNPVGLSGVRMQAKVHLITCHNDMAKNIVKAVERCGLKVDQLIFAGLASSYSVLTEDERELGVCVVDIGGGTMDIAVYTGGALRHTKVIPYAGNVVTSDIAYAFGTPPSDAEAIKVRHGCALGSIVGKDESVEVPSVGGRPPRSLQRQTLAEVIEPRYTELLNLVNEEILQLQEKLRQQGVKHHLAAGIVLTGGAAQIEGLAACAQRVFHTQVRIGAPLNITGLTDYAQEPYYSTAVGLLHYGKESHLNGEAEVEKRVTASVGSWIKRLNSWLRKEF
notes: FtsA, Escherichia coli, full-length protein; also called EcFtsA; E. coli FtsA; source: E. coli C41(DE3), purified (HisTrap, chitin resin with intein cleavage, SEC); not shown: intein-CBD-12H, C-terminal, cleaved
B2: Escherichia coli FtsA E124A (FtsN suppressor mutant), full length (natural protein, E. coli, UniProt P0ABH0 1-420, looked up)
chain: B1 chain with E124A
notes: FtsA, Escherichia coli, full-length protein with E124A; also called EcFtsA^E124A; source: E. coli C41(DE3), purified (HisTrap, chitin resin with intein cleavage, SEC); not shown: intein-CBD-12H, C-terminal, cleaved
B3: Escherichia coli FtsA I143L (FtsN suppressor mutant), full length (natural protein, E. coli, UniProt P0ABH0 1-420, looked up)
chain: B1 chain with I143L
notes: FtsA, Escherichia coli, full-length protein with I143L; also called EcFtsA^I143L; source: E. coli C41(DE3), purified (HisTrap, chitin resin with intein cleavage, SEC); not shown: intein-CBD-12H, C-terminal, cleaved
B4: Escherichia coli FtsA G50E (ZipA suppressor and filament architecture mutant), full length (natural protein, E. coli, UniProt P0ABH0 1-420, looked up)
chain: B1 chain with G50E
notes: FtsA, Escherichia coli, full-length protein with G50E; also called EcFtsA^G50E; source: E. coli C41(DE3), purified (HisTrap, chitin resin with intein cleavage, SEC); not shown: intein-CBD-12H, C-terminal, cleaved

Molecular target: the molecule itself
Assay: negative stain electron microscopy on supported lipid monolayers; full-length FtsA at 0.1-0.2 mg/ml with 1 mM ATP, without or with FtsN peptide (up to 10-fold molar excess), on E. coli polar lipid monolayers; binding buffer pH 7.7
B1: binds.
B2: binds.
B3: binds.
B4: binds.
